Reference: article PMC9035704
“And” between values parts separate entries of the source, which are not always exact repeats. Identical values can stand only once. Like-named read-outs stand apart in the source and are kept apart here.

Legend:
Assay in all cases: cryo-EM structure
[1] = target: Danio rerio calcium homeostasis modulator 1 (drCALHM1) (Danio rerio) (UniProt E7F2J4)
[2] = target: Danio rerio calcium homeostasis modulator 1 (drCALHM1) (Danio rerio) (UniProt E7F2J4); remark: listed apart in the source
[3] = target: Danio rerio calcium homeostasis modulator 1 (drCALHM1) (Danio rerio) (UniProt E7F2J4); remark: listed apart in the source

Danio rerio calcium homeostasis modulator 1 (drCALHM1) (from UniProt E7F2J4 1-346) (natural protein)
stoichiometry N [1]: 7 and 8
stoichiometry N [2]: 7
stoichiometry N [3]: 8
